Laboratory results from patent US20040258659A1.

Target: CCR5 (UniProt P51681)
Test: cell-based or functional assay

Sequence of CCR5 (P51681 whole entry): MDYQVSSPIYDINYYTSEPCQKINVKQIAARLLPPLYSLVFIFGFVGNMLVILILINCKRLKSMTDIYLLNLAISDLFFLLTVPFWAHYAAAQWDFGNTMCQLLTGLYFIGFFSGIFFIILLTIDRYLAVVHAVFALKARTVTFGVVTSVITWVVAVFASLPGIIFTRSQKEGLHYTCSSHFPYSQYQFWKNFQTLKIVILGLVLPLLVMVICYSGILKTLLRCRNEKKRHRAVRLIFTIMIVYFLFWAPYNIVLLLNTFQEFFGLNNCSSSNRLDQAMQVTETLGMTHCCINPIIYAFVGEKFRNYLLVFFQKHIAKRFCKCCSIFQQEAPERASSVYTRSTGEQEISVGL

Substance “aminooxypentane(AOP)-RANTES (from UniProt P13501 24-91) (ligand)” has an IC50, R5-tropic envelope-mediated cell fusion assay of 3 nM.
